In the supplement of paper PMC9732359:
± gives the uncertainty stated by the source.

Assay: protein stability index of a GFP-peptide fusion (yeast GPS) (PSI 1-4); higher = more stable; sorted into four equal gates, so the index is relative within each strain
In short: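 The protein stability index of a peptide was calculated by multiplying its read frequency in each gate by that gate's number and adding the products. The peptides were tiled 17-residue stretches of yeast proteins, fused downstream of GFP on a Cherry-expressing plasmid and carried in yeast as a pooled library. Mid-log cultures in leucine-free medium were sorted into four equal gates by GFP/Cherry ratio, and each gate's plasmids were PCR-amplified and Illumina-sequenced.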

Sequence | protein stability index (doa10∆) | protein stability index (pdr5∆) | protein stability index (san1∆) | protein stability index (ubr1∆)
KEEVCQGMEGTVDLALF [YMR129W/POM152] | 3.45 ± 0.21 | 3.44 ± 0.27 | 3.26 ± 0.2 | –
GLSKEDDVRDFVIRREV [RPS6A] | 3.42 ± 0.094 | 3.42 ± 0.081 | 3.13 ± 0.13 | 3.68 ± 0.15
TAFQTQRTAQDRVQQDS [YML031W/NDC1] | 2.94 ± 0.086 | 2.62 ± 0.075 | 3.26 ± 0.076 | 2.35 ± 0.079
QQQQQQQQQQQHIYPSS [GAL11] | 2.691 ± 0.02 | 2.78 ± 0.02 | 2.693 ± 0.017 | 2.811 ± 0.018
DRMDVDEDESQNIAQSS [HRT1] | 2.37 ± 0.072 | 2.66 ± 0.062 | 2.21 ± 0.051 | 2.43 ± 0.05
PVDITMMENYQNISPVY [PRP8] | 2.28 ± 0.049 | 1.99 ± 0.06 | 2.2 ± 0.071 | 2.06 ± 0.038
AKAGLTFPVGRVHRLLR [HTA1] | 2.03 ± 0.11 | 2.72 ± 0.14 | 2.01 ± 0.16 | 2.39 ± 0.12
NAQQTFHIDHTKPSDLT [RPO21] | 2.85 ± 0.044 | 2.6 ± 0.042 | 2.69 ± 0.048 | 2.82 ± 0.041
LKFLYLLDAYSHIESDS [MED1] | 2.46 ± 0.091 | 2.44 ± 0.075 | 2.8 ± 0.061 | 2.64 ± 0.057
IDDVQTIKVVKRSMDAE [RPP1] | 3.18 ± 0.054 | 2.89 ± 0.057 | 3.06 ± 0.039 | 3 ± 0.051
SNDKVVEWINPSRRERR [ISW2] | – | – | – | 3.34 ± 0.15
KTQEYYTQYTNDYLEKH [CDC53] | 2.99 ± 0.062 | 2.42 ± 0.067 | 2.96 ± 0.049 | 3.22 ± 0.062
NTLLISGPFKVNGVPLR [RPL6A] | 2.25 ± 0.074 | 2.36 ± 0.059 | 2.28 ± 0.076 | 2.72 ± 0.04
KMLMNLHKEQWQSGLKM [RPN11] | 2.14 ± 0.048 | 2.05 ± 0.04 | 2.4 ± 0.039 | 2.13 ± 0.035
FLELTRRADVKTATVKI [RPL38] | 1.67 ± 0.05 | 1.77 ± 0.041 | 2.02 ± 0.077 | 1.2 ± 0.042
AETQGSKVVIDSIIDNI [IRR1] | 2.79 ± 0.098 | 3.26 ± 0.07 | 3.08 ± 0.12 | 2.99 ± 0.039
VTDDPIWMRGHGTYFLD [RRP4] | 3.22 ± 0.067 | 3.17 ± 0.078 | 3.47 ± 0.056 | 3.07 ± 0.065
QDNHHITKVTENLFSKE [YMR129W/POM152] | 2.86 ± 0.059 | 2.8 ± 0.066 | 2.99 ± 0.045 | 3.1 ± 0.049
SVSGSPRPSYSSRPNVN [YMR129W/POM152] | 2.8 ± 0.091 | 2.72 ± 0.085 | 2.45 ± 0.066 | 2.77 ± 0.081
DHNGVPFPQYPAGMNET [ITC1] | 1.97 ± 0.12 | 2.59 ± 0.11 | 2.8 ± 0.19 | 2.42 ± 0.064
DRKNRAPPQRPRFNREN [RPS26A] | 2.81 ± 0.11 | 2.64 ± 0.082 | 3.29 ± 0.11 | 3.02 ± 0.091
FGKKRLDLAGPLLAQLF [RPB2] | 1.44 ± 0.19 | 1.79 ± 0.16 | 1.42 ± 0.15 | 1.4 ± 0.18
IVIDVDYNKKQDRIQDV [MED1] | 3.16 ± 0.15 | 3.13 ± 0.091 | 2.99 ± 0.094 | 3.09 ± 0.077
LGAVAGLIPYPHHNQSP [RET1] | 2.65 ± 0.094 | 2.97 ± 0.071 | 2.69 ± 0.055 | 2.94 ± 0.065
DGTEYVLSSVREPDFWV [MED6] | 3.49 ± 0.13 | – | – | 2.67 ± 0.12
HLGKGTMTMDVFNDAHV [RPN1] | 2.96 ± 0.073 | 2.98 ± 0.084 | 2.06 ± 0.12 | 2.87 ± 0.081
NSSKPAFSFGAKSNEDK [YJL041W/NSP1] | 3.19 ± 0.1 | 3.13 ± 0.056 | 3.32 ± 0.077 | 3.33 ± 0.068

Sequence | protein stability index (doa10∆) | protein stability index (pdr5∆) | protein stability index (san1∆) | protein stability index (ubr1∆)
TVLFFIGVRCYEAYPNT [FAS1] | 1.21 ± 0.054 | 1.23 ± 0.049 | 1.66 ± 0.1 | 1.8 ± 0.043
LKYSKRRSLKKQGRIKN [CSN12] | 3.01 ± 0.064 | 3.27 ± 0.069 | 3.21 ± 0.098 | 3.25 ± 0.036
WVYKTKGDGMTSAVASI [RPN1] | 2.75 ± 0.27 | 3.14 ± 0.19 | 2.57 ± 0.23 | 2.97 ± 0.14
HRASPADVSIKSILQEI [POP5] | 3.11 ± 0.26 | 3.27 ± 0.1 | 2.95 ± 0.12 | –
LMVFNDDTKNQDSMSKG [YGR119C/NUP57] | 3.04 ± 0.08 | 3.46 ± 0.16 | 2.94 ± 0.18 | 3.05 ± 0.071
TPDDDEIDVENHDRINI [RPN8] | 3.37 ± 0.26 | 3.5 ± 0.25 | 2.75 ± 0.17 | 2.68 ± 0.16
MYPSPTGVMIGIDLAYN [PRP8] | 2.11 ± 0.074 | 2.1 ± 0.07 | 1.97 ± 0.081 | 2.07 ± 0.048
VQHDQILVMETSEEQTK [SWP82] | 2.99 ± 0.092 | 2.91 ± 0.11 | 2.94 ± 0.047 | 2.85 ± 0.076
LYNVMGINKKKLLAISK [RPC31] | 2.83 ± 0.26 | 2.3 ± 0.16 | 3.67 ± 0.095 | 3.5 ± 0.26
EKLLQQDREITNWARTT [MED8] | 2.37 ± 0.09 | 1.77 ± 0.087 | 2.48 ± 0.089 | 2.06 ± 0.11
SELPDIYSRDIGAELKR [SNF2] | – | 3.26 ± 0.13 | 3.38 ± 0.08 | 3.41 ± 0.18
AGLDEDGKGAVYSFDPV [PRE7] | 2.58 ± 0.29 | 3 ± 0.2 | – | 2.87 ± 0.15
TIDWVEAGLQLCRQGHN [PRP8] | 2.08 ± 0.18 | 2.77 ± 0.1 | 2.08 ± 0.091 | 2.26 ± 0.085
KRKYDEITHPPSTTDDE [SWI3] | 3.13 ± 0.11 | 3.23 ± 0.12 | 3.18 ± 0.071 | 3.29 ± 0.082
PYMNHKNTSSMDFLNSM [GAL11] | 1.87 ± 0.056 | 1.69 ± 0.055 | 2.48 ± 0.089 | 3.04 ± 0.044
NFYRPLLRSVLVLLELV [YML103C/NUP188] | 1.23 ± 0.066 | 1.21 ± 0.087 | 1.18 ± 0.12 | 1.06 ± 0.074
IYQVPEKDLEHWLQLAK [POP1] | 3.22 ± 0.12 | 3.13 ± 0.13 | 3.42 ± 0.091 | 3.1 ± 0.099
EEIFFKSVRILKNKAEY [RPC40] | 3.2 ± 0.074 | 3.2 ± 0.085 | 3.06 ± 0.062 | 3.16 ± 0.047
AHIAKNLINLSIGASIA [YCS4] | 1.34 ± 0.068 | 1.37 ± 0.072 | 1.94 ± 0.17 | 1.78 ± 0.057
VKIRATGGTRTKTPGPG [RPS14A] | 3.21 ± 0.25 | 3.08 ± 0.16 | 2.72 ± 0.14 | 3.33 ± 0.21
GNSFNKSSNDTIEHAAD [YCG1] | 2.14 ± 0.058 | 2.67 ± 0.048 | 2.37 ± 0.047 | 2.64 ± 0.057
DYLTLNKVVVNLNDAGL [RPN2] | 2.73 ± 0.091 | 3.02 ± 0.08 | – | 3.16 ± 0.06
ISNINIPISSETTIDDL [SMC1] | – | 2.69 ± 0.17 | – | 1.85 ± 0.071
QEKESQIQLAESELSLL [SMC4] | 2.81 ± 0.046 | 2.95 ± 0.051 | 1.89 ± 0.076 | 2.71 ± 0.039
AVNSIMALKFVSIKFTN [ECM29] | – | 3.12 ± 0.11 | 2.87 ± 0.13 | 3.13 ± 0.22
GRETILSNFNADINLEE [SIR3] | 3.14 ± 0.094 | 3.17 ± 0.11 | 2.85 ± 0.067 | 2.99 ± 0.07
QEHTIFTQLKKNIPKTR [SNU114] | 1.8 ± 0.045 | 2.16 ± 0.05 | 2.64 ± 0.049 | 1.62 ± 0.037
